# Test results reported in publication PMC4427845, “Redesigning Protein Cavities as a Strategy for Increasing Affinity in Protein-Protein Interaction: Interferon-γ Receptor 1 as a Model” (BioMed Research International, 2015).
# Changes are numbered by the printed parent chain.
# T1: IFNγR1 G225Y variant (residues 18-245) (human, UniProt P15260 18-245, G225Y)
# T1 construct: interferon-γ receptor 1 (IFNγR1), human, extracellular domain, residues 18-245 of UniProt P15260; No primers are printed for this mutation; the methods say one protocol was followed for all proteins of the study; not shown: His tag, C-terminal, kept
# T1 sequence (looked up): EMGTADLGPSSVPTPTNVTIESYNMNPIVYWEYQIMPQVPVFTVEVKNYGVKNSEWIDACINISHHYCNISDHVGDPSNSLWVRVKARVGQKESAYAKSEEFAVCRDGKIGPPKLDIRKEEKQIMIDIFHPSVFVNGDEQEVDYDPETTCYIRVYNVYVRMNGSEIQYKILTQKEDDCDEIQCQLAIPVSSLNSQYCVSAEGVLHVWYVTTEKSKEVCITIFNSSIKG
# T2: IFNγR1 N96W + G225Y double mutant (residues 18-245) (human, UniProt P15260 18-245, N96W | G225Y)
# T2 construct: interferon-γ receptor 1 (IFNγR1), human, extracellular domain, residues 18-245 of UniProt P15260; not shown: His tag, C-terminal, kept
# T2 sequence (looked up): T1 sequence (looked up) with N79W
# T3: IFNγR1 N96W + V35L variant (residues 18-245) (human, UniProt P15260 18-245, V35L | N96W)
# T3 construct: interferon-γ receptor 1 (IFNγR1), human, extracellular domain, residues 18-245 of UniProt P15260; not shown: His tag, C-terminal, kept
# T3 sequence (looked up): T1 sequence (looked up) with V18L, N79W, Y208G
# B1: Recombinant interferon gamma in so-called single chain form (IFNγSC) (ligand)
# chain: MQDPYVKEAENLKKYFNAGHSDVADNGTLFLGILKNWKEESDRKIMQSQIVSFYFKLFKNFKDDQSIQKSVETIKEDMNVKFFNSNKKKRDDFEKLTNYSVTDLNVQRKAIDELIQVMAEFSTEEQQEGPYVKEAENLKKYFNAGHSDVADNGTLFLGILKNWKEESDRKIMQSQIVSFYFKLFKNFKDDQSIQKSVETIKEDMNVKFFNSNKKKRDDFEKLTNYSVTDLNVQRKAIHELIQVMAELSPAAKTGKRKRSQMLFRG
# Experiments:
# Assay in all cases: SPR; His-tagged receptor variants immobilised on a Ni2+-activated HTG sensor chip (ProteOn); IFNγSC 0.1-9 nM flowed over, 90 s association, 10 min dissociation, 100 μL/min; PBST (PBS pH 7.4, 0.005% Tween 20); doubly referenced (interspots and His-tagged FrpD channel); 1:1 Langmuir with drift model
# Settings in all cases: both partners purified
# [1] = target: T1, IFNγR1 G225Y variant (residues 18-245)
# [2] = target: T2, IFNγR1 N96W + G225Y double mutant …
# [3] = target: T3, IFNγR1 N96W + V35L variant (residues …)
binder,measurement,setting,value
B1,ratio of Kd values against WT,[1],0.4
same,ratio of Kd values against WT,[2],3.1
same,fold of affinity against WT,[3],7 fold
